Where a chain is given by its changes, count along the chain named. Names may count otherwise.
T1: MspA-((Del-L74/G75/D118/L119)D56N/E59R/L88N/D90N/D91N/N108P/Q126R/D134R/E139K) monomer (Mycobacterium smegmatis, UniProt A0QR29 28-211)
T1 construct: Seven copies in each of the 7:1 pores MspA 2, MspA 3 and MspA 7; also called untagged monomer of MspA 2, MspA 3 and MspA 7
T1 chain: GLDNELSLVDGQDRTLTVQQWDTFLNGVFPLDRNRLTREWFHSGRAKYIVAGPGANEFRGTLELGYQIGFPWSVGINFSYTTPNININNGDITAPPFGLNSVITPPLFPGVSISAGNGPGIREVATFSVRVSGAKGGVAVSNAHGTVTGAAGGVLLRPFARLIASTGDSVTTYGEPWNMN

B1: MspA-((Del-L74/G75/D118/L119)D56N/E59R/L88N/D91N/Q126R/D134R/E139K/BasTL/H6) monomer (other)
chain: GLDNELSLVDGQDRTLTVQQWDTFLNGVFPLDRNRLTREWFHSGRAKYIVAGPGANEFRGTLELGYQIGFPWSVGINFSYTTPNINIDNGDITAPPFGLNSVITPNLFPGVSISAGNGPGIREVATFSVRVSGAKGGVAVSNAHGTVTGAAGGVLLRPFARLIASTGDSVTTYGEPWNMNDNQKALEEQMNSINSVNDKLNKGKGKLSLSMNGNQLKATSSNAGYGISYEDKNWGIFVNGEKVYTFNEKSTVGNISNDINKLNIKGPYIEIKKIHHHHHH
notes: also called tagged monomer of MspA 1
B2: MspA-((Del-L74/G75/D118/L119)D56N/E59R/L88N/D91N/N108P/Q126R/D134R/E139K/BasTL/H6) monomer (other)
chain: B1 chain with N106P
notes: One copy in MspA 2 (7:1); also called tagged monomer of MspA 2; monomer unit with the BasTL-H6 attached
B3: MspA-(G75S/G77S/L88N/D90N/D91N/D93N/D118R/Q126R/D134R/E139K/BasTL) monomer (other)
chain: GLDNELSLVDGQDRTLTVQQWDTFLNGVFPLDRNRLTREWFHSGRAKYIVAGPGADEFEGTLELGYQIGFPWSLSVSINFSYTTPNININNGNITAPPFGLNSVITPNLFPGVSISARLGNGPGIREVATFSVRVSGAKGGVAVSNAHGTVTGAAGGVLLRPFARLIASTGDSVTTYGEPWNMNDNQKALEEQMNSINSVNDKLNKGKGKLSLSMNGNQLKATSSNAGYGISYEDKNWGIFVNGEKVYTFNEKSTVGNISNDINKLNIKGPYIEIKKI
notes: also called monomer tagged with full length BasTL
B4: MspA-(G75S/G77S/L88N/D90N/D91N/D93N/D118R/Q126R/D134R/E139K/D10H6) monomer (other)
chain: GLDNELSLVDGQDRTLTVQQWDTFLNGVFPLDRNRLTREWFHSGRAKYIVAGPGADEFEGTLELGYQIGFPWSLSVSINFSYTTPNININNGNITAPPFGLNSVITPNLFPGVSISARLGNGPGIREVATFSVRVSGAKGGVAVSNAHGTVTGAAGGVLLRPFARLIASTGDSVTTYGEPWNMNDDDDDDDDDDHHHHHH
notes: also called D10H6 tagged monomer
B5: MspA-(G75S/G77S/L88N/D90N/D91N/D93N/D118R/Q126R/D134R/E139K) monomer (other)
chain: GLDNELSLVDGQDRTLTVQQWDTFLNGVFPLDRNRLTREWFHSGRAKYIVAGPGADEFEGTLELGYQIGFPWSLSVSINFSYTTPNININNGNITAPPFGLNSVITPNLFPGVSISARLGNGPGIREVATFSVRVSGAKGGVAVSNAHGTVTGAAGGVLLRPFARLIASTGDSVTTYGEPWNMN
notes: Made by coupled in vitro transcription and translation (35S-methionine) with rabbit red blood cell membranes; eight copies in the homo-oligomer; also called untagged monomer; untagged version
B6: MspA-((Del-L74/G75/D118/L119)D56N/E59R/L88N/D90N/D91N/Q126R/D134R/E139K) monomer (other)
chain: T1 chain with P106N
notes: Pore-forming monomer; Seven copies in MspA 1 (7:1), eight in the homo-oligomer MspA 6; also called untagged monomer of MspA 1; monomer of MspA 6

Legend:
[1] = target: B6; assay: co-expression in E. coli, His column, gel filtration, gel; 7:1 hetero-oligomer
[2] = target: T1, MspA-(Del-L74/G75/D118/L119)D56N/E59R/L …; assay: co-expression under 14 induction conditions, NiNTA batch purification, 10% TGX gel
[3] = target: B5; assay: IVTT of mixed DNA (2:1 untagged:tagged) with rRBCM, 7.5% Tris HCl gel, autoradiography
[4] = target: the molecule itself; assay: IVTT with rRBCM, 5% Tris HCl gel, autoradiography; homo-oligomerisation
[5] = target: the molecule itself; assay: IVTT with rRBCM, 7.5% Tris HCl gel, autoradiography
[6] = target: the molecule itself; assay: 10% TGX gel, coomassie; homo-octamer, broken into monomers at 100 C in 50% DMSO

B1: binds [1].

B2: binds [2].

B3: binds [3].

B4: no binding [4].

B5: binds [5].

B6: binds [6].

— US20180095066A1 (OXFORD NANOPORE TECHNOLOGIES, published 2018)
